Laboratory results: article PMC3396760

Assay: in-culture cell surface labelling with cell-impermeable BG-682
Details: glycan lost; control: wild type SNAP-Crb3a

B1: Crumbs3a (Crb3a): N36D (protein)
parent chain: MANPGLGLLLALGLPFLLARWGRAWGQIQTTSANENSTVLPSSTSSSSDGNLRPEAITAIIVVFSLLAALLLAVGLALLVRKLREKRQTEGTYRPSSEEQVGARVPPTPNLKLPPEERLI
With B1 the localisation_or_trafficking was “no change”.
